140 substances from the supplement of paper PMC12042874 can be followed below.

± gives the uncertainty stated by the source.

This data set can be described thus: amyloid nucleation score (Sup35N fusion, yeast selection) (log enrichment); library NNK2; higher = more nucleation; inactive = no reads after selection. A digest of the protocol: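 In psi-negative yeast, Sup35N fusions carrying peptides of 20 random codons were induced with 100 μM copper sulfate for 24 hours. The cells then grew 7 days at 30°C on medium lacking adenine and uracil, and plasmid inserts from input and output were Illumina-sequenced, excluding sequences with under 100 input reads. Nucleation score is the DiMSum log enrichment of output over input reads, centred on the mode score of non-aggregating sequences.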
Turning to FVSAHRYWCHMTLSAVMGLH, the amyloid nucleation score worked out at 3.04 ± 0.12.

SYVQMTDT: the amyloid nucleation score was -0.146 ± 1.

RRNNTGKHFWDWETREGFSM: the amyloid nucleation score is -0.931 ± 1.1.

Regarding VLVKL, the amyloid nucleation score is -1.17 ± 0.48.

For LKPPLVAHHGNILCGFLGDG, the amyloid nucleation score is -1.39 ± 0.78.

SMYSVYSFYTEIGTL: the amyloid nucleation score was -0.441 ± 0.48.

For the substance LINFSFSDTAVFYVREGWEH, the amyloid nucleation score was determined as 6.846 ± 0.039.

The substance ASYLCFPNNVVLSLHNHVFS showed an amyloid nucleation score of 4.834 ± 0.048.

In the case of DLWGTMKFNF, the amyloid nucleation score result was “inactive”.

MNYLCASSGVLVKN: the amyloid nucleation score is -0.055 ± 1.1.

FLLDCN had an amyloid nucleation score of 2.56 ± 0.15.

In turn, RRPKHYMAVMSESVGLQCRL came in with an amyloid nucleation score of 0.173 ± 0.37.

Take KITMDPGLVRIHNFGQTSLV: the amyloid nucleation score came out at 0.408 ± 0.62.

On to SELKMWYTDMVSTSKLDCIL, for which the amyloid nucleation score is -0.125 ± 0.46.

On to ALWFLLKQSGARYLDLAIPG, for which the amyloid nucleation score was -0.06 ± 1.1.

With TYTYSSCRIARRS, the amyloid nucleation score was -0.559 ± 0.26.

Consider GFCPLVRPSCESFRLQERLV, for which the amyloid nucleation score was -0.303 ± 0.63.

As to ICISWPINLCMV, the amyloid nucleation score amounted to 2.6 ± 0.22.

Take RRPFVRRLFVLKNMFNSLGR: the amyloid nucleation score is -0.707 ± 1.1.

The substance SCYIDRTRYWDGYFLLCSMD registered an amyloid nucleation score of 0.949 ± 0.74.

Substance HNRISQRRLRLGLRGHWSRK came in with an amyloid nucleation score of 0.691 ± 0.53.

Turning to SNLNLFITYLTLSTNDR, the amyloid nucleation score is 9.225 ± 0.042.

For IIRDPTACTFLVCVSYME, the amyloid nucleation score was found to be 6.27 ± 0.059.

CMIIKGCTVWVVRP came in with an amyloid nucleation score of 9.469 ± 0.055.

With LSKPDLRTGSDDMS, the amyloid nucleation score is -0.297 ± 0.79.

Turning to SSNALKGDGSFGQNEVESAK, the amyloid nucleation score is -0.043 ± 0.32.

In turn, VYRQNLNLNME came in with an amyloid nucleation score of 0.189 ± 0.64.

Take SFRRSPELSQEFTRGYDSYR: the amyloid nucleation score is -0.276 ± 0.76.

As for TPENFHLR, the amyloid nucleation score entry was “inactive”.

Consider HFVNMHH, for which the amyloid nucleation score is -0.213 ± 0.76.

CGRTDNWGNDRNASRRHGGL gave an amyloid nucleation score of 0.694 ± 0.24.

Consider NFAGLLY, for which the amyloid nucleation score result is “inactive”.

In the case of FYCSNSKFW, the amyloid nucleation score was found to be 3.5 ± 0.074.

YAIFYGRLNMCGSGLSVPRE had an amyloid nucleation score of 0.381 ± 0.62.

As to NSRLLLTHRRISPSPWYVGV, the amyloid nucleation score stood at 1.09 ± 0.16.

In the case of HKRCVITLLWADL, the amyloid nucleation score was 0.344 ± 0.41.

For PRMRWAVCERP, the amyloid nucleation score stood at 4.11 ± 0.096.

As to YSIKQAY, the amyloid nucleation score result was “inactive”.

Turning to GEQSDFSSSYSYLLWKVWDG, the amyloid nucleation score was -1.2 ± 0.36.

In the case of NVFLS, the amyloid nucleation score result was “inactive”.

Take RLYCQRFPRFENITIWELLL: the amyloid nucleation score was -1.71 ± 0.54.

As for FTLLSMNRSGFIIRVPDAV, the amyloid nucleation score came out at 0.035 ± 0.24.

On to AFVLRVNYNLNTRGYVSLFK, for which the amyloid nucleation score came out at 2.14 ± 0.14.

Regarding SWTSIVQIVILCGFRQWLAR, the amyloid nucleation score came to 0.076 ± 0.39.

As to VVVHSTLLGFWIIF, the amyloid nucleation score result is “inactive”.

The substance IWILELFKY yielded an amyloid nucleation score of 4.07 ± 0.12.

Turning to VYSANSWH, the amyloid nucleation score is -0.364 ± 0.3.

HMMHSWAFL came in with an amyloid nucleation score of 3.81 ± 0.047.

YSFNALRRY displayed an amyloid nucleation score of 0.632 ± 0.25.

In turn, QGVDNGDRGRGRNLWASMRR gave an amyloid nucleation score of 1.34 ± 0.39.

GRVCSRSFL: the amyloid nucleation score was determined as 2.1 ± 0.085.

Regarding HEYVAALGWMAEGLSKFLKR, the amyloid nucleation score amounted to 0.579 ± 0.8.

As for VGGQNGCCWVVLNTSVPNSS, the amyloid nucleation score amounted to 6.645 ± 0.052.

In turn, LCVEELMTCVCWVRS had an amyloid nucleation score of 0.47 ± 0.26.

In turn, TTGRWVVLRG displayed an amyloid nucleation score of 0.342 ± 0.39.

As for CDVLRY, the amyloid nucleation score is -0.825 ± 0.48.

VKFFFTILVPFLIFVS: the amyloid nucleation score entry was “inactive”.

In the case of ARMRFKRRKCCNAIWVRSSV, the amyloid nucleation score was found to be 0.398 ± 0.3.

YMYGVNNASSF came in with an amyloid nucleation score of 5.79 ± 0.054.

On to AISLYMFVRDIAKSILRQVC, for which the amyloid nucleation score turned out to be 0.269 ± 0.5.

Consider LVRNPAQMSFRPIVHSVCYL, for which the amyloid nucleation score stood at 0.724 ± 0.16.

Turning to VAVTLNFLIGVIGCRGILMG, the amyloid nucleation score worked out at 5.482 ± 0.043.

Substance FSQNIVSSRVVTYKMNCNGM yielded an amyloid nucleation score of 3.72 ± 0.044.

In the case of GSWHDWHRCRSLRYDQTNTS, the amyloid nucleation score was -0.185 ± 0.39.

As for LCGSQFL, the amyloid nucleation score was 0.705 ± 0.66.

The substance ARYAVDTSITNECSLALYTS displayed an amyloid nucleation score of 1.23 ± 0.24.

Turning to WFSLFLPPVSSKRQPADEMA, the amyloid nucleation score is -0.317 ± 1.1.

As for VYYVSRLLTFFPVSSNPCGS, the amyloid nucleation score was 0.566 ± 0.56.

Regarding PFYLVRRGWNIWNSNGVECH, the amyloid nucleation score is -0.161 ± 1.1.

On to TDHMHKISRVHRDKKMSVGF, for which the amyloid nucleation score was -0.707 ± 1.1.

Consider MLLIIVWQILMKLNGWITVL, for which the amyloid nucleation score entry was “inactive”.

With MLIDSWSVAIYICLLLIQVQ, the amyloid nucleation score came out at 1.34 ± 0.13.

Regarding NSRRQERWCFIMTLVDFDVV, the amyloid nucleation score was -0.431 ± 0.4.

On to ALMEKSTSNLLFCHLDCASD, for which the amyloid nucleation score worked out at 3.24 ± 0.071.

With LNLFWKQSGTVRLDDGWRSV, the amyloid nucleation score was 0.969 ± 0.74.

As for SATFWLFVGVENVADMSKVG, the amyloid nucleation score is 0.261 ± 0.4.

For the substance RGLAES, the amyloid nucleation score was -0.2 ± 0.24.

Turning to LYSDGVIDMRRLCKVL, the amyloid nucleation score was -0.841 ± 0.62.

On to LDDPGLK, for which the amyloid nucleation score is 0.76 ± 0.14.

Turning to LLRCSLHNKLTLSFDFAFVV, the amyloid nucleation score entry is “inactive”.

The substance YQGNIRVGISRSRK registered an amyloid nucleation score of 0.36 ± 0.41.

For RQMDHYQRGFLIIYCQLTDK, the amyloid nucleation score result was “inactive”.

Regarding RVKRRMSFVVAVAQVMGLVG, the amyloid nucleation score was 0.475 ± 0.23.

In the case of ARFSKHHLTKVLFGKDYQAP, the amyloid nucleation score came out at 0.235 ± 0.34.

Take FIMMDRAGSMIYSKGTRNIR: the amyloid nucleation score was 3.05 ± 0.11.

As to SMMKLDEYI, the amyloid nucleation score was -1.17 ± 0.78.

RSYQMSGPIALRKWEEEWAE displayed an amyloid nucleation score of 0.611 ± 0.46.

As for NYLSLVGRFNMGWGESNGRR, the amyloid nucleation score came to 5.888 ± 0.058.

For WNMMPRASEQFYYRL, the amyloid nucleation score result was “inactive”.

NQYMFFGSHRD registered an amyloid nucleation score of 0.424 ± 0.49.

Turning to VELSHFCTGRNSYSRRWISM, the amyloid nucleation score was 0.422 ± 0.65.

Take RTMWSIFHYSTVVSRVSTMA: the amyloid nucleation score is 1.23 ± 0.45.

CVMGPAT registered an amyloid nucleation score of 1.02 ± 0.3.

With AIKESRCDIVIRRKWSSLKT, the amyloid nucleation score was -0.02 ± 1.1.

Take RRGNLGDAMNNMARFCSYSF: the amyloid nucleation score entry is “inactive”.

As to VVQGVIFNGDMLNRGSLGKI, the amyloid nucleation score is -0.129 ± 0.79.

In turn, DGNNVVIWLLWLSANMTGAG showed an amyloid nucleation score of 1.97 ± 0.13.

Turning to LLGGHYP, the amyloid nucleation score came to 0.844 ± 0.52.

For the substance TVSNR, the amyloid nucleation score is -1.27 ± 0.37.

Take SYIHRAWAYM: the amyloid nucleation score result was “inactive”.

Substance FFLLPLVRYELLSNVDAVPG returned an amyloid nucleation score of 0.101 ± 0.76.

Consider RIVIFFFTCIYPIWIRNTWP, for which the amyloid nucleation score is -1.18 ± 1.1.

With LFSCFKTEWFCITRMDGLIM, the amyloid nucleation score was found to be 5.731 ± 0.036.

In turn, GIIRSWNIRPLEMPKE showed an amyloid nucleation score of 0.176 ± 0.27.

As for VRSMTELGPRLVAGK, the amyloid nucleation score was determined as 1.45 ± 0.33.

In the case of YAFQGHGNFETGSYPEVLAA, the amyloid nucleation score amounted to 0.098 ± 0.49.

On to LVSFGVYMLSSVRKECHSLN, for which the amyloid nucleation score came to 0.536 ± 0.49.

On to EVILTLIRYNV, for which the amyloid nucleation score was 4.21 ± 0.1.

For the substance VRDNHNRSGQVRGGADLN, the amyloid nucleation score was 0.822 ± 0.34.

Regarding SALSGRYAKTLRNGHGLYQE, the amyloid nucleation score entry is “inactive”.

DFQIFYFARLFRTV: the amyloid nucleation score is -0.681 ± 0.79.

WWLSGA returned an amyloid nucleation score of 0.898 ± 0.35.

Substance SISLEIHTAGTGKSRLPFYS gave an amyloid nucleation score of 5.67 ± 0.073.

IDWIGPIYMHIAVMMVTVFQ had an amyloid nucleation score of 4.924 ± 0.033.

Substance FIRYS had an amyloid nucleation score of 1.79 ± 0.084.

Take DSDSFYIMPMVHMPNNFHRD: the amyloid nucleation score is -1.41 ± 1.1.

Consider LRVCNFCTFHFVWWS, for which the amyloid nucleation score amounted to 4.8 ± 0.06.

For the substance VPFGQTAVLSEGDSEVGGMK, the amyloid nucleation score is -0.228 ± 1.1.

For LSSGLLSLFALKQCF, the amyloid nucleation score was -0.669 ± 0.54.

For YPYSPLSKRRNLRWINFVRC, the amyloid nucleation score is -1.46 ± 1.1.

On to SVRGRNDESAMLTLQRELRY, for which the amyloid nucleation score is -0.343 ± 1.1.

With MLGCCPRVSVVPNTV, the amyloid nucleation score is -0.467 ± 0.45.

Turning to YSISQLWYTLTIHVPFHPLK, the amyloid nucleation score is -0.114 ± 0.15.

With GGDSECGYNGVFVGYAVFWC, the amyloid nucleation score amounted to 0.128 ± 0.29.

As to SFVMYRNSGRVCGMRVASEW, the amyloid nucleation score was 0.766 ± 0.22.

The substance CRLEGKTSVPCDNRGLGWAR yielded an amyloid nucleation score of 0.938 ± 0.47.

Turning to ILKPYCVCDLSNKLE, the amyloid nucleation score stood at 0.199 ± 0.4.

In the case of YISFVGW, the amyloid nucleation score was -2.23 ± 0.62.

As to IPAMETSTLAGYGPYSHNFG, the amyloid nucleation score is -0.629 ± 0.26.

As for SHLCHLGGSRRTQRVVEVSS, the amyloid nucleation score is 5.72 ± 0.064.

Take HAAGSLHMDYLV: the amyloid nucleation score is 0.122 ± 1.1.

VVSVFSSYVRQCCYGGWEV showed an amyloid nucleation score of 6.67 ± 0.077.

In the case of SNSKVSVLIFFSAHKGECAA, the amyloid nucleation score result was “inactive”.

Take RCFSTHVAQDQLFVY: the amyloid nucleation score entry was “inactive”.

For the substance TSISYLRVYTRSFMRSLSGL, the amyloid nucleation score entry was “inactive”.

Turning to MKRLPDSDIMVVPIVHKINL, the amyloid nucleation score result was “inactive”.

As for TQSIALINTRVELTVDEFSF, the amyloid nucleation score was -0.111 ± 0.65.

In turn, LFLLIIFLCTTYVVIKDPTH had an amyloid nucleation score of 2.73 ± 0.12.

MILNQMYDKFYSRLSSITSR gave an amyloid nucleation score of 1.31 ± 0.66.

For FLKYSDKQHAVNVGLKVTAQ, the amyloid nucleation score was found to be 0.094 ± 0.74.
